{
  "source": "paper PMC3640471",
  "about": "“The structures of Arabidopsis Deg5 and Deg8 reveal new insights into HtrA proteases” (Acta Crystallographica Section D: Biological Crystallography, 2013)",
  "molecules": {"B1": {"name": "Arabidopsis thaliana Deg5 (S266A) (enzyme)", "chain": "LEQFKEKEEELEEEEERNVNLFQKTSPSVVYIEAIELPKTSSGDILTDEENGKIEGTGSGFVWDKLGHIVTNYHVIAKLATDQFGLQRCKVSLVDAKGTRFSKEGKIVGLDPDNDLAVLKIETEGRELNPVVLGTSNDLRVGQSCFAIGNPYGYENTLTIGVVSGLGREIPSPNGKSISEAIQTDADINSGNAGGPLLDSYGHTIGVNTATFTRKGSGMSSGVNFAIPIDTVVRTVPYLIVYGTAYRDR", "notes": "HtrA protease Deg5 of Arabidopsis thaliana, catalytic Ser266 mutated to alanine; PDB 4ic5 holds the crystallised chain; source: purified; expression and purification described previously (Fan et al., 2012)"}, "B2": {"name": "Deg5 (E87A/D260A/S266A) (enzyme, Arabidopsis thaliana)", "chain": "LEQFKEKEEELEEAEERNVNLFQKTSPSVVYIEAIELPKTSSGDILTDEENGKIEGTGSGFVWDKLGHIVTNYHVIAKLATDQFGLQRCKVSLVDAKGTRFSKEGKIVGLDPDNDLAVLKIETEGRELNPVVLGTSNDLRVGQSCFAIGNPYGYENTLTIGVVSGLGREIPSPNGKSISEAIQTDAAINSGNAGGPLLDSYGHTIGVNTATFTRKGSGMSSGVNFAIPIDTVVRTVPYLIVYGTAYRDR", "notes": "HtrA protease Deg5 of Arabidopsis thaliana with E87A, D260A and S266A; parent is Deg5 (S266A), m1; also called Deg5 (S266A/E87A/D260A) triple mutant; mutant (E87A/D260A/S266A)"}, "B3": {"name": "Arabidopsis thaliana Deg8 (S292A) (enzyme, UniProt Q9LU10 91-448, looked up)", "chain": "LGDPSVATVEDVSPTVFPAGPLFPTEGRIVQLFEKNTYSVVNIFDVTLRPQLKMTGVVEIPEGNGSGVVWDGQGYIVTNYHVIGNALSRNPSPGDVVGRVNILASDGVQKNFEGKLVGADRAKDLAVLKVDAPETLLKPIKVGQSNSLKVGQQCLAIGNPFGFDHTLTVGVISGLNRDIFSQTGVTIGGGIQTDAAINPGNAGGPLLDSKGNLIGINTAIFTQTGTSAGVGFAIPSSTVLKIVPQLIQFSKVLRAGINIELAPDPVANQLNVRNGALVLQVPGKSLAEKAGLHPTSRGFAGNIVLGDIIVAVDDKPVKNKAELMKILDEYSVGDKVTLKIKRGNEDLELKISLEEKSS", "notes": "HtrA protease Deg8 of Arabidopsis thaliana, 358 residues Leu91-Ser448, catalytic Ser292 mutated to alanine; residues 104-448 defined in the density; source: expression and purification described previously (Shan et al., 2013)"}},
  "key": {"[1]": {"molecular_target": "Deg8 (sample of the analytical SEC) (Arabidopsis thaliana) (UniProt Q9LU10)", "test": "SEC; analytical SEC of Deg8 at pH 6.0; Superdex 200 10/300 GL, 10 µM protein, sodium phosphate, 150 mM NaCl"}, "[2]": {"molecular_target": "Deg8 (sample of the analytical SEC) (Arabidopsis thaliana) (UniProt Q9LU10)", "test": "SEC; analytical SEC of Deg8 at pH 8.0; Superdex 200 10/300 GL, 10 µM protein, sodium phosphate, 150 mM NaCl"}, "[3]": {"molecular_target": "the molecule itself", "test": "crystal structure; Deg5 (S266A), space group C2, three molecules per asymmetric unit, 2.6 Å"}, "[4]": {"molecular_target": "the molecule itself", "test": "SEC; analytical SEC, Superdex 200 10/300 GL, 10 µM protein, sodium phosphate pH 6.0 or 8.0, 150 mM NaCl"}, "[5]": {"molecular_target": "the molecule itself", "test": "crystal structure; Deg8 (S292A), space group C2, three molecules per asymmetric unit, 2.0 Å; hexamer in the crystal"}},
  "data": [
    {"molecule": "Deg8 (sample of the analytical SEC) (from UniProt Q9LU10 91-448) (enzyme)", "values": [
      {"measurement": "stoichiometry N", "setting": "[1]", "value": 3},
      {"measurement": "stoichiometry N", "setting": "[2]", "value": 6}
    ]},
    {"molecule": "B1", "values": [
      {"measurement": "stoichiometry N", "setting": "[3]", "value": 3}
    ]},
    {"molecule": "B2", "values": [
      {"measurement": "stoichiometry N", "setting": "[4]", "value": 3}
    ]},
    {"molecule": "B3", "values": [
      {"measurement": "stoichiometry N", "setting": "[5]", "value": 6}
    ]}
  ]
}
